The values that follow come from patent US20120107330A1 (published 2012).

Ends that are not written are not given here.

Test [1] deals with human TNFR1 (recombinant, R&D Systems cat no. 636-R1/CF, biotinylated) (human) (UniProt P19438). Put plainly: BIAcore, human TNFR1 on SA chip, second injection after DOM1h-574-16 as competitor. (SPR reads the build-up and loss of mass on a sensor chip optically.)
The target in test [2] is T1, human TNFR1 on MRC-5 cells (human, UniProt P19438 30-455).
T1 sequence (looked up): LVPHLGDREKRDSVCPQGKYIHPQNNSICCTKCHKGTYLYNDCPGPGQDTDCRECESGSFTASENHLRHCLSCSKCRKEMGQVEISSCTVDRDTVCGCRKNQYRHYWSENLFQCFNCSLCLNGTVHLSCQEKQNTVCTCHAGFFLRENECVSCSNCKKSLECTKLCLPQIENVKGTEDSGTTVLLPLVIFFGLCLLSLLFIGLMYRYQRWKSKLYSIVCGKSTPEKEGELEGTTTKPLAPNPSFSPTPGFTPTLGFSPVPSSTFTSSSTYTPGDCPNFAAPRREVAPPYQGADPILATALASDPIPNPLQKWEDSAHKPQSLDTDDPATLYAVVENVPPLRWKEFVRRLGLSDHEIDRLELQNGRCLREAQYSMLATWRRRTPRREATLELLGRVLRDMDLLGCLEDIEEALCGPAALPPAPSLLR
Put plainly: cell-based or functional assay.

Test [3] has as its target T2, human serum albumin (HSA, Sigma-Aldrich) (human, UniProt P02768 25-609).
T2 construct: also called human albumin
Nature of the test: BIAcore, HSA on CM5 chip. The method, then: FIG. 23. BIAcore analysis for binding of DOM0100-AlbudAb in-line fusions to human serum albumin (HSA). HSA (Sigma-Aldrich) was coated on a BIAcore CM5 chip using EDC/NHS chemistry according to manufacturer's instructions. Subsequently, the DMS constructs, each consisting N-terminally to C-terminally of an anti-TNFR1 dAb-Linker-AlbudAb and identified in Table 6, were injected at 1 μM over the HSA surface and binding was monitored. […] The corresponding BIAcore trace for each DMS clone is indicated with an arrow.

Test [4] deals with T3, mouse serum albumin (MSA, Sigma-Aldrich) (mouse, UniProt P07724 25-608).
T3 construct: also called mouse albumin
Put plainly: BIAcore, MSA on CM5 chip. As for the experimental part: FIG. 22. BIAcore analysis for binding of DOM0100-AlbudAb in-line fusions to mouse serum albumin (MSA). MSA (Sigma-Aldrich) was coated on a BIAcore CM5 chip using EDC/NHS chemistry according to manufacturer's instructions. Subsequently, the DMS constructs, each consisting N-terminally to C-terminally of an anti-TNFR1 dAb-Linker-AlbudAb and identified in Table 6, were injected at 1 μM over the MSA surface and binding was monitored. […] The corresponding BIAcore trace for each DMS clone is indicated with an arrow.
After expression and purification, all constructs were tested on the BIAcore for binding to both mouse and human serum albumin. The off-rates were determined and used to discriminate between the AlbudAbs for their suitability in prolonging the half-life of the fusion molecule. Whereas the linker had little influence on the affinity of the AlbudAb for albumin, a significant difference existed between the dAbs and their albumin affinity. The best AlbudAb for mouse binding was DOM7h-11-15 followed by DOM7m-16 and DOM7h-11-12 (FIG. 22).

Test [5] concerns the target T4, human TNFR1 (recombinant, R&D Systems cat no. 636-R1/CF, biotinylated) (human, UniProt P19438 30-211, limits assumed, biotinylated with EZ-Link NHS-LC-LC-biotin).
T4 construct: it is not tied to the BIAcore reagent; also called p55; hTNFR1
T4 sequence (looked up): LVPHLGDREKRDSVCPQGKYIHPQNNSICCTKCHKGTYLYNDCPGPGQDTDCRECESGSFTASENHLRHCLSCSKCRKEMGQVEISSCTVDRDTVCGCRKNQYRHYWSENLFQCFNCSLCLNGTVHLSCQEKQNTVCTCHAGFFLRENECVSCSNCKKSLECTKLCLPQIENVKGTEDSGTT
Put plainly: BIAcore, biotinylated human TNFR1 on SA chip, purified dAb injected (concentration not given).

The target in test [6] is T1, human TNFR1 on MRC-5 cells. Nature of the test: cell-based or functional assay. The source holds these as a separate data set.
The target of test [7] is T5, mouse TNFR1 on L929 cells (mouse, UniProt P25118 30-454).
T5 sequence (looked up): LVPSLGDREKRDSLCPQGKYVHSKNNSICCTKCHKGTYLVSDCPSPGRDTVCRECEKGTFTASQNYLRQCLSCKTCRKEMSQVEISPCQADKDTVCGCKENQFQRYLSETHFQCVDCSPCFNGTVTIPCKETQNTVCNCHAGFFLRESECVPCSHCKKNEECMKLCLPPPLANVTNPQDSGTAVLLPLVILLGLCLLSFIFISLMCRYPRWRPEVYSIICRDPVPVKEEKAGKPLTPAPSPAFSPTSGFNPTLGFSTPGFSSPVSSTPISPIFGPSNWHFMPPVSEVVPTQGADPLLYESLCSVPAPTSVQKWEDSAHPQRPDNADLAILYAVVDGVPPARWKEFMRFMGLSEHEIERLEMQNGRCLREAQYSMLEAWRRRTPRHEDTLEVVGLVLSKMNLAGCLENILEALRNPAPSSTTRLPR
Put plainly: cell-based or functional assay.

Test [8] concerns the target T4, human TNFR1 (recombinant, R&D Systems …). Put plainly: BIAcore, TNFR1 (species not given, taken as human).
Test [9] addresses T6, peptide A3 (negative control fragment of human TNFR1) (human, cysteine pairing not given here; also: biotinylated, position not given here).
T6 construct: also called control peptide
T6 peptide: SGSGNDCPGPGQDTDCREC
Put plainly: BIAcore, biotinylated peptide A3 on SA chip.

For test [10], the target named is T7, peptide D2 (domain-1 peptide of human TNFR1) (human, cysteine pairing not given here; also: biotinylated, position not given here).
T7 construct: also called peptide 1
T7 peptide: SGSGNSICCTKCHKGTYLY
Put plainly: BIAcore, biotinylated peptide D2 on SA chip.

For test [11], the target named is T8, peptide D5 (domain-3 peptide of human TNFR1) (human, also: biotinylated, position not given here).
T8 construct: also called peptide 2
T8 peptide: SGSGCRKNQYRHYWSENLF
Put plainly: BIAcore, biotinylated peptide D5 on SA chip.

Test [12] addresses T9, peptide E5 (overlapping domain-3 peptide of human TNFR1) (human, also: biotinylated, position not given here).
T9 construct: also called peptide 3
T9 peptide: SGSGNQYRHYWSENLFQCF
Put plainly: BIAcore, biotinylated peptide E5 on SA chip.

T2 sequence (P02768 25-609 limits assumed): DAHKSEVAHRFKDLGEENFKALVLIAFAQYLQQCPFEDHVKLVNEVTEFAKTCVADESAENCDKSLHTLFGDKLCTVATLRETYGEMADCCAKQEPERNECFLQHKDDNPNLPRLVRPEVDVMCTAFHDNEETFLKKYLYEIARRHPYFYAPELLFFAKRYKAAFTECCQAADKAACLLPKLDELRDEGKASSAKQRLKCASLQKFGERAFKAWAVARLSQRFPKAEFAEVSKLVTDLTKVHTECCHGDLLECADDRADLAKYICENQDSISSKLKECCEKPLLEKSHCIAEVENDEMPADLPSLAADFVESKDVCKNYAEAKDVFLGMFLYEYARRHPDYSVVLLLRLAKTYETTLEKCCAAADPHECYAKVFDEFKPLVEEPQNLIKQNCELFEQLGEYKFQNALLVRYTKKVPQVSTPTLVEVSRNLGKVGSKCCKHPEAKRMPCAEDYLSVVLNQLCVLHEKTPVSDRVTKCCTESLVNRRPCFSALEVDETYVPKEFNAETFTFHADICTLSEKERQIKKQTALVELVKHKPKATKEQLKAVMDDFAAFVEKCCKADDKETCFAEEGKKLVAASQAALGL

For “mAb Clone 4.12 (Invitrogen, cat. no. Zymed 33-0100) (antibody)”, the decrease of binding (RUs) in the presence of the competitor in [1] amounted to 20%.

B1: DMS0163 (bispecific antibody)
chain: EVQLLESGGGLVQPGGSLRLSCAASGFTFVKYSMGWVRQAPGKGPEWVSQISNTGDRTYYADSVKGRFTISRDNSKNTLYLQMNSLRAEDTAVYYCAIYTGRWEPFDYWGQGTLVTVSSASTSGPSDIQMTQSPSSLSASVGDRVTITCRASRPIGTMLSWYQQKPGKAPKLLILAFSRLQSGVPSRFSGSGSGTDFTLTISSLQPEDFATYYCAQAGTHPTTFGQGTKVEIKRAAAEQKLISEEDLN
notes: anti-TNFR1 dAb / AlbudAb in-line fusion
What is called koff is the rate constant with which the complex falls apart. As for B1, the “ND50 (MRC5)” value in [2] worked out at 12 nM. Moreover, the dissociation rate constant (koff) in test [3] is 0.0024 s⁻¹; in test [4] it was 0.0062 s⁻¹.

B2: DOM1h-549 (other)
VH: EVQLLESGGGLVQPGGSLRLSCAASGFTFVDYEMHWVRQAPGKGLEWVSSISESGTTTYYADSVKGRFTISRDNSKNTLYLQMNSLRAEDTAVYYCAKRRFSASTFDYWGQGTLVTVSS
notes: VH dAb
In the case of B2, the binding result in [5] is “binds”.

B3: DOM1h-509 (other)
VH: EVQLLESGGGLVQPGGSLRLSCAASGFTFSQYRMHWVRQAPGKSLEWVSSIDTRGSSTYYADPVKGRFTISRDNSKNTLYLQMNSLRAEDTAVYYCAKAVTMFSPFFDYWGQGTLVTVSS
notes: VH domain antibody (dAb)
Consider B3, for which the binding result in [5] is “binds”.

B4: DMS0132 (bispecific antibody)
chain: EVQLLESGGGLVQPGGSLRLSCAASGFTFVKYSMGWVRQAPGKGLEWVSQISDTADRTYYAHSVKGRFTISRDNSKNTLYLQMNSLRAEDTAVYYCAIYTGRWVPFEYWGQGTLVTVSSASTDIQMTQSPSSLSASVGDRVTITCRASRPIGTTLSWYQQKPGKAPKLLILWNSRLQSGVPSRFSGSGSGTDFTLTISSLQPEDFATYYCAQAGTHPTTFGQGTKVEIKR
notes: as for B1
For orientation: Kd means a measure of binding affinity in units of concentration. The kon is a measure of how fast the partners come together. In the case of B4, in test [6], the “MRC5 ND50” value worked out at 1.04 nM. Further, the “L929 ND50” value in [7] was found to be 6.8 nM. For the same molecule, in [8], the Kd turned out to be 0.25 nM, the dissociation rate constant (koff) was determined as 4.6e-05 s⁻¹ and the kon is 190000 M⁻¹ s⁻¹.

B5: DMS0135 (bispecific antibody)
chain: EVQLLESGGGLVQPGGSLRLSCAASGFTFFKYSMGWVRQAPGKGLEWVSQISDTADRTYYSHSVKGRFTISRDNSKNTLYLQMNSLRAEDTAVYYCAIYTGRWVPFEYWGQGTLVTVSSASTDIQMTQSPSSLSASVGDRVTITCRASRPIGTTLSWYQQKPGKAPKLLILWNSRLQSGVPSRFSGSGSGTDFTLTISSLQPEDFATYYCAQAGTHPTTFGQGTKVEIKR
notes: as for B1
For B5, the “MRC5 ND50” value in test [6] was 1.17 nM. Besides, the “L929 ND50” value in test [7] came to 5.9 nM. In [8], the Kd amounted to 0.32 nM, the koff stood at 5.7e-05 s⁻¹ and the kon is 180000 M⁻¹ s⁻¹.

B6: DMS0133 (bispecific antibody)
chain: EVQLLESGGGLVQPGGSLRLSCAASGFTFFKYSMGWVRQAPGKGLEWVSQISDTADRTYYAHSVKGRFTISRDNSKNTLYLQMNSLRAEDTAVYYCAIYTGRWAPFEYWGQGTLVTVSSASTDIQMTQSPSSLSASVGDRVTITCRASRPIGTTLSWYQQKPGKAPKLLILWNSRLQSGVPSRFSGSGSGTDFTLTISSLQPEDFATYYCAQAGTHPTTFGQGTKVEIKR
notes: as for B1
On to B6, for which the “MRC5 ND50” value in test [6] stood at 0.99 nM. In addition, the “L929 ND50” value in test [7] was determined as 4.2 nM. In test [8], the Kd is 0.2 nM, the koff was found to be 3.6e-05 s⁻¹ and the kon is roughly 180000 M⁻¹ s⁻¹.

B7: DMS0134 (bispecific antibody)
chain: EVQLLESGGGLVQPGGSLRLSCAASGFTFFKYSMGWVRQAPGKGLEWVSQISDTADRTYYAHSVKGRFTISRDNSKNTLYLQMNSLRAEDTAVYYCAIYTGRWVPFEYWGQGTLVTVSSASTDIQMTQSPSSLSASVGDRVTITCRASRPIGTTLSWYQQKPGKAPKLLILWNSRLQSGVPSRFSGSGSGTDFTLTISSLQPEDFATYYCAQAGTHPTTFGQGTKVEIKR
notes: as for B1
For B7, the “MRC5 ND50” value in test [6] amounted to 0.96 nM. In addition, the “L929 ND50” value in test [7] was 5.8 nM. Moreover, in test [8], the equilibrium dissociation constant (Kd) was 0.26 nM, the koff was 4.9e-05 s⁻¹ and the kon turned out to be 190000 M⁻¹ s⁻¹.

B8: DOM1m-21-23 (other)
VH: EVQLLESGGGLVQPGGSLRLSCAASGFTFNRYSMGWLRQAPGKGLEWVSRIDSYGRGTYYEDPVKGRFSISRDNSKNTLYLQMNSLRAEDTAVYYCAKISQFGSNAFDYWGQGTQVTVSS
notes: VH dAb; also called DOM1m-12-23 [sic]
For B8, the binding result in test [9], in [10], in test [11] and in test [12] was “no binding (tested: 2.5 µM)” each time.
